The source of these data is the Immune Epitope Database (IEDB).

Usually Kd stands for a measure of binding affinity in units of concentration.

Some targets named below: HLA-A*02:03; HLA-A*02:06; HLA-A*02:02; HLA-A*03:01; HLA-A*33:01; HLA-A*11:01; HLA-A*68:01; HLA-A*31:01.
What all share (assay): IEDB peptide-MHC binding, purified MHC/competitive/radioactivity; filed as Kd, often an IC50 or EC50 that approximates it; ≥ and ≤ were set here for values at or beyond the usual limits of such assays
Where [1] appears, read: source organism: Vaccinia virus WR.
Where [2] appears, read: source organism: SARS coronavirus Tor2.
Where [3] appears, read: source organism: Mammarenavirus juninense.
Setting [4] is: source organism: Mammarenavirus brazilense.

As for DVNSVQFSIL, the Kd was 1660 nM with HLA-A*02:03 (setting [1]), 3400 nM with HLA-A*02:06 (setting [1]) and 2270 nM with HLA-A*02:02 (setting [1]).

Consider TLATGPVLTL, for which, in the assay with HLA-A*02:03 (source organism: Dengue virus 4 Philippines/H241/1956), the Kd came out at 28.3 nM.

Regarding YALCTLLHL, the figures for the dissociation constant Kd with HLA-A*02:03 (setting [2]), with HLA-A*02:06 (setting [2]) and with HLA-A*02:02 (setting [2]) were 768 nM, 1.53 nM and 1330 nM, respectively.

For KQNKFGDSPL, the equilibrium dissociation constant (Kd) turned out to be 216 nM with HLA-A*02:03 (setting [1]), 5080 nM with HLA-A*02:06 (setting [1]) and 89.6 nM with HLA-A*02:02 (setting [1]).

In the case of TSLGLLYTV, the figures for the Kd with HLA-A*02:03 (setting [3]), with HLA-A*02:06 (setting [3]) and in the assay with HLA-A*02:02 (setting [3]) were 405 nM, 4.17 nM and 933 nM, respectively.

For the sequence NQGNILMDSI, the equilibrium dissociation constant (Kd) came out at 4040 nM with HLA-A*02:03 (setting [1]), 3090 nM with HLA-A*02:06 (setting [1]) and 3930 nM with HLA-A*02:02 (setting [1]).

As for GIIITVGML, the Kd in the assay with HLA-A*02:03 (setting [1]) turned out to be 349 nM; with HLA-A*02:06 (setting [1]), 18400 nM; with HLA-A*02:02 (setting [1]) it was 8670 nM.

Turning to LISSDGARVI, the Kd is 1150 nM with HLA-A*02:03 (setting [1]), at least 35000 nM with HLA-A*02:06 (setting [1]) and 7180 nM in the assay with HLA-A*02:02 (setting [1]).

Turning to FIASAPQQL, the dissociation constant Kd with HLA-A*02:03 (setting [1]) stood at 4.39 nM; with HLA-A*02:06 (setting [1]), 89.4 nM; with HLA-A*02:02 (setting [1]), 1.97 nM.

Take FVNFVKDMI: the Kd with HLA-A*02:03 (setting [1]) came out at 124 nM; with HLA-A*02:06 (setting [1]), 229 nM; in the assay with HLA-A*02:02 (setting [1]), 55.2 nM.

IIGHIGHHYI: the Kd with HLA-A*02:03 (setting [1]) came out at 186 nM; in the assay with HLA-A*02:06 (setting [1]) it was 1350 nM; with HLA-A*02:02 (setting [1]) it was 400 nM.

For DITNILGGV, the equilibrium dissociation constant (Kd) with HLA-A*02:03 (setting [1]) is 1640 nM; with HLA-A*02:06 (setting [1]), 7430 nM; with HLA-A*02:02 (setting [1]), 9880 nM.

Turning to FLAFLLFLVL, the results for the dissociation constant (Kd) with HLA-A*02:03 (setting [2]), in the assay with HLA-A*02:06 (setting [2]) and in the assay with HLA-A*02:02 (setting [2]) were 245 nM, 2000 nM and 13.2 nM, respectively.

Turning to LLNMRDLIV, the dissociation constant (Kd) with HLA-A*02:03 (setting [1]) is 1.23 nM; with HLA-A*02:06 (setting [1]), 225 nM; with HLA-A*02:02 (setting [1]) it was 665 nM.

Consider YIILFILFFA, for which the equilibrium dissociation constant (Kd) was 674 nM with HLA-A*02:03 (setting [1]), 1050 nM with HLA-A*02:06 (setting [1]) and 263 nM with HLA-A*02:02 (setting [1]).

For NLKYTVIITV, the dissociation constant (Kd) in the assay with HLA-A*02:03 (source organism: Dengue virus 3 Martinique/1243/1999) worked out at 9.29 nM.

Turning to GLKSKTHAVL, the dissociation constant (Kd) in the assay with HLA-A*02:03 (source organism: Homo sapiens) is 1.05 nM; with HLA-A*02:06 (source organism: Homo sapiens), at least 69800 nM.

For FTTSLSLHK, the dissociation constant Kd with HLA-A*03:01 (setting [2]) stood at 1350 nM; in the assay with HLA-A*33:01 (setting [2]), 1130 nM; in the assay with HLA-A*11:01 (setting [2]) it was 181 nM; in the assay with HLA-A*68:01 (setting [2]), 271 nM; with HLA-A*31:01 (setting [2]) it was 2860 nM.

In the case of VFFTASLFLH, the dissociation constant (Kd) in the assay with HLA-A*03:01 (setting [3]) was 10400 nM; with HLA-A*33:01 (setting [3]), 164 nM; with HLA-A*11:01 (setting [3]), 10100 nM; with HLA-A*68:01 (setting [3]), at least 22700 nM; in the assay with HLA-A*31:01 (setting [3]), 318 nM.

In the case of YSGLTPEQK, the Kd is 18800 nM with HLA-A*03:01 (setting [1]); at least 53000 nM with HLA-A*33:01 (setting [1]); 497 nM with HLA-A*11:01 (setting [1]); 494 nM with HLA-A*68:01 (setting [1]); 16200 nM with HLA-A*31:01 (setting [1]).

For GSFQEFRSNH, the Kd was at least 28700 nM in the assay with HLA-A*03:01 (setting [4]); at least 45200 nM in the assay with HLA-A*33:01 (setting [4]); 7130 nM with HLA-A*11:01 (setting [4]); at least 70100 nM in the assay with HLA-A*68:01 (setting [4]); 1520 nM with HLA-A*31:01 (setting [4]).

On to KSQAKKPEVR, for which the Kd is at least 22000 nM with HLA-A*03:01 (setting [1]); at least 37200 nM with HLA-A*33:01 (setting [1]); 10800 nM with HLA-A*11:01 (setting [1]); at least 70200 nM with HLA-A*68:01 (setting [1]); 299 nM with HLA-A*31:01 (setting [1]).

Consider SVVQKPVDVK, for which the Kd was 61.6 nM with HLA-A*03:01 (setting [2]); at least 67100 nM with HLA-A*33:01 (setting [2]); 53.7 nM in the assay with HLA-A*11:01 (setting [2]); 857 nM in the assay with HLA-A*68:01 (setting [2]); 7980 nM in the assay with HLA-A*31:01 (setting [2]).

Regarding ALSEAREHLK, the dissociation constant Kd with HLA-A*03:01 (setting [2]) is 80.6 nM; with HLA-A*33:01 (setting [2]), at least 70000 nM; in the assay with HLA-A*11:01 (setting [2]), 141 nM; in the assay with HLA-A*68:01 (setting [2]) it was 2960 nM; with HLA-A*31:01 (setting [2]) it was 5320 nM.

Regarding RIDGAHLTK, the Kd with HLA-A*03:01 (setting [2]) is 26.7 nM; in the assay with HLA-A*33:01 (setting [2]) it was at least 77700 nM; with HLA-A*11:01 (setting [2]) it was 11.9 nM; with HLA-A*68:01 (setting [2]), at least 25700 nM; with HLA-A*31:01 (setting [2]), 1820 nM.

For EQLQLLMPLK, the Kd with HLA-A*03:01 (setting [2]) worked out at 1200 nM; with HLA-A*33:01 (setting [2]) it was 2370 nM; in the assay with HLA-A*11:01 (setting [2]), 150 nM; in the assay with HLA-A*68:01 (setting [2]) it was 1790 nM; with HLA-A*31:01 (setting [2]), 2940 nM.

In the case of VALYRRIQRR, the dissociation constant (Kd) with HLA-A*03:01 (setting [1]) is at least 70100 nM; with HLA-A*33:01 (setting [1]), 1340 nM; with HLA-A*11:01 (setting [1]), at least 48200 nM; in the assay with HLA-A*68:01 (setting [1]), at least 30500 nM; with HLA-A*31:01 (setting [1]), 562 nM.

In the case of SAGAGVLDK, the Kd in the assay with HLA-A*03:01 (setting [1]) was 243 nM; in the assay with HLA-A*33:01 (setting [1]), at least 77700 nM; with HLA-A*11:01 (setting [1]) it was 316 nM; in the assay with HLA-A*68:01 (setting [1]) it was 3350 nM; in the assay with HLA-A*31:01 (setting [1]), at least 26600 nM.

In the case of TSSTCMMCYK, the Kd in the assay with HLA-A*03:01 (setting [2]) turned out to be 22.9 nM; in the assay with HLA-A*33:01 (setting [2]), 441 nM; with HLA-A*11:01 (setting [2]) it was 1.17 nM; in the assay with HLA-A*68:01 (setting [2]), 4.93 nM; with HLA-A*31:01 (setting [2]) it was 85.1 nM.
